{"source": "paper PMC10578478", "key": {"[1]": {"target": "T1, Pla1 poly(A) polymerase wild-type (Schizosaccharomyces pombe (fission …, UniProt Q10295 1-566))", "T1 sequence": "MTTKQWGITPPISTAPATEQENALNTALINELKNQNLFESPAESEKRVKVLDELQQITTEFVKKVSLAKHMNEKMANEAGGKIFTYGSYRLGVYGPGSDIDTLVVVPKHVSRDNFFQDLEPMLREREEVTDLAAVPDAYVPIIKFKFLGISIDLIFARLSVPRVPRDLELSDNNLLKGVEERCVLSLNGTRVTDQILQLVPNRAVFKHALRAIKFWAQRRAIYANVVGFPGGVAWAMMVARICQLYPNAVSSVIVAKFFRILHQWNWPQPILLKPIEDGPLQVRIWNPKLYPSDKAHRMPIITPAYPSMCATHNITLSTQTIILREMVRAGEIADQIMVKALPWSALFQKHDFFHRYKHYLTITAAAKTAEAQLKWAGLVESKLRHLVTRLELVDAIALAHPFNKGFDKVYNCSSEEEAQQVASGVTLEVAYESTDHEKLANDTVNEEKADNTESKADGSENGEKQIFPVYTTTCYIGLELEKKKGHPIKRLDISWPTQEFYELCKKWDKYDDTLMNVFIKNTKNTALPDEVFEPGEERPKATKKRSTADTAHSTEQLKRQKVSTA", "assay": "fluorescence polarization"}, "Pla1-Y86D": {"target": "T2, Pla1-Y86D (Schizosaccharomyces pombe (fission …, UniProt Q10295 1-566, Y86D))", "T2 sequence": "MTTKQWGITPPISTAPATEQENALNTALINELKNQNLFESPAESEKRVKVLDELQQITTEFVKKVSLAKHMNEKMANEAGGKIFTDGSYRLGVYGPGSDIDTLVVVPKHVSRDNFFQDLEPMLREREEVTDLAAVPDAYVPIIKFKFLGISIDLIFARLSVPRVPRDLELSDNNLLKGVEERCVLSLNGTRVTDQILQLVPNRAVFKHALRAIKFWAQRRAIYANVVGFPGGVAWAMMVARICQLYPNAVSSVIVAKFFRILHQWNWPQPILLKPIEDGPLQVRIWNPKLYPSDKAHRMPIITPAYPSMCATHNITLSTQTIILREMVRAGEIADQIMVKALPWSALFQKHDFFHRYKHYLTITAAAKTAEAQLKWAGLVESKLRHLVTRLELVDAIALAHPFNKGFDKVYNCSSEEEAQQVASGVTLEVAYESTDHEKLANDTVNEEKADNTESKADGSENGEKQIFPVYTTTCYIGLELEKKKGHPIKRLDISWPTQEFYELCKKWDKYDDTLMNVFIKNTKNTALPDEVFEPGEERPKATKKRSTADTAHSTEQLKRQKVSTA", "assay": "fluorescence polarization"}}}
{"binder": "UUUCUGUGGCUA (ssRNA)", "note": "[12-mer RNA primer]", "values": [{"measurement": "Kd", "setting": "[1]", "value": "~456", "unit": "nM"}, {"measurement": "binding result", "setting": "Pla1-Y86D", "value": "no binding"}]}
